B1: wild type enzyme: wild type phosphoenolpyruvate carboxylase of Escherichia coli, expressed from pS2 or pT2 (protein, UniProt P00864 1-883, looked up)
Phosphoenolpyruvate …: MNEQYSALRSNVSMLGKVLGETIKDALGEHILERVETIRKLSKSSRAGNDANRQELLTTLQNLSNDELLPVARAFSQFLNLANTAEQYHSISPKGEAASNPEVIARTLRKLKNQPELSEDTIKKAVESLSLELVLTAHPTEITRRTLIHKMVEVNACLKQLDNKDIADYEHNQLMRRLRQLIAQSWHTDEIRKLRPSPVDEAKWGFAVVENSLWQGVPNYLRELNEQLEENLGYKLPVEFVPVRFTSWMGGDRDGNPNVTADITRHVLLLSRWKATDLFLKDIQVLVSELSMVEATPELLALVGEEGAAEPYRYLMKNLRSRLMATQAWLEARLKGEELPKPEGLLTQNEELWEPLYACYQSLQACGMGIIANGDLLDTLRRVKCFGVPLVRIDIRQESTRHTEALGELTRYLGIGDYESWSEADKQAFLIRELNSKRPLLPRNWQPSAETREVLDTCQVIAEAPQGSIAAYVISMAKTPSDVLAVHLLLKEAGIGFAMPVAPLFETLDDLNNANDVMTQLLNIDWYRGLIQGKQMVMIGYSDSAKDAGVMAASWAQYQAQDALIKTCEKAGIELTLFHGRGGSIGRGGAPAHAALLSQPPGSLKGGLRVTEQGEMIRFKYGLPEITVSSLSLYTGAILEANLLPPPEPKESWRRIMDELSVISCDVYRGYVRENKDFVPYFRSATPEQELGKLPLGSRPAKRRPTGGVESLRAIPWIFAWTQNRLMLPAWLGAGTALQKVVEDGKQSELEAMCRDWPFFSTRLGMLEMVFAKADLWLAEYYDQRLVDKALWPLGKELRNLQEEDIKVVLAIANDSHLMADLPWIAESIQLRNIYTDPLNVLQAELLHRSRQAEKEGQEPDPRVEQALMVTIAGIAAGMRNTG

Tests used:
Escherichia coli HB101 = assay: Growth inhibition of Escherichia coli HB101 by aspartic acid analog compounds and recovery by additives; format: cell-based; conditions: E. coli HB101 in M9 medium, absorbance at 660 nm; FIGS. 1-3
Method: It is proposed, as a general structure of an inhibitor of phosphoenolpyruvate carboxylase, that a C4 dicarboxylic acid structure is essentially provided. From such a viewpoint, various compounds were subjected to screening by the present inventors. Escherichia coli HB101 was cultivated in an LB medium, and transferred to M9 media (containing 20 μg/ml of thiamine and 3 μg/ml of each of Leu and Pro) containing any one of DL-2-amino-4-phosphonobutyric acid, bromosuccinic acid, meso-2,3-dibromosuccinic acid, 2,2-difluorosuccinic acid, 3-bromopyruvic acid, α-ketobutyric acid, α-ketoadipinic acid DL-threo-β-hydroxyaspartic acids L-aspartic acid β-metyl ester α-metyl-DL-aspartic acid, 2,3-diaminosuccinic acid or aspartic acid-β-hydrazide, and absorbance of the medium was measured at 660 nm with the passage of time, thereby growth was monitored.
Further, when these compounds were present at their growth inhibitory concentrations, it was investigated whether or not the inhibition was recovered by addition of nucleic acids (each of uridine, adenosine: 10 mg/dl), glutamic acid or amino acids of the aspartic acid family (Asp: 0.025%, each of Met, Thr, Lys: 0.1%).
Further, growth recovery of Escherichia coli, in the case of addition of the aforementioned inhibition recovering substances alone or as a mixture of 2 species or 3 species, is shown in FIGS. 4-6. […]

[1] = tested on: phosphoenolpyruvate carboxylase; assay: Sensitivity of phosphoenolpyruvate carboxylase activity to aspartic acid; format: biochemical, Escherichia coli
From the text: When the microorganism transformed with the DNA sequence of the present invention as described above is cultivated, and this DNA sequence is expressed, then a mutant enzyme is obtained. It becomes apparent, by measuring the activity by adding aspartic acid to an enzyme reaction system, whether or not the mutant enzyme thus obtained has desensitized feedback inhibition by aspartic acid. It is possible for the measurement of the enzyme activity to use a spectrometric method (Yoshinage, T., Izui, K. and Katsuki, H., J. Biochem., 68, 747-750 (1970)) and the like.
(§1) Sensitivity to aspartic acid was investigated in accordance with a known method (Yoshinaga, T., Izui, K. and Katsuki, H., J. Biochem., 68, 747-750 (1970)). Namely, as a result of measurement of the enzyme activity produced by each of the transformants or Escherichia coli harboring pS2 in the presence of acetyl-coenzyme A known to affect the activity in an activity measurement system at a concentration of 0.1 mM or 1 mM, sensitivity to aspartic acid was measured as shown in FIGS. 9 and 10.
as §1, with “activity” for “activity produced by each of the transformants or Escherichia coli harboring pS2”, “of 1” for “of 0.1”, “or 2” for “or 1”, “in FIG. 12.” for “in FIGS. 9 and 10.”
as §1, with “activity” for “activity produced by each of the transformants or Escherichia coli harboring pS2”, “of 1” for “of 0.1”, “or 2” for “or 1”, “in FIG. 13.” for “in FIGS. 9 and 10.”

Row | Molecule | growth inhibition of Escherichia coli (Escherichia coli HB101) | enzyme activity at high aspartic acid concentration (sensitivity to aspartic acid) ([1]; Example 2, acetyl-coenzyme A 0.1 mM or 1 mM, FIGS. 9 and 10) | enzyme activity at high aspartic acid concentration (sensitivity to aspartic acid) ([1]; Example 6 <3>, pT2R438C (438th Arg to Cys), acetyl-coenzyme A 1 mM or 2 mM, FIG. 12) | enzyme activity at high aspartic acid concentration (sensitivity to aspartic acid) ([1]; Example 6 <5>, pT2K620S, acetyl-coenzyme A 1 mM or 2 mM, FIG. 13)
1 | NNC(=O)CC(N)C(=O)O (stereo not drawn) [aspartate-β-hydrazide] | growth inhibition |  |  | 
2 | N[C@H](C(=O)O)[C@H](O)C(=O)O (relative stereo) [DL-threo-β-hydroxyaspartate] | growth inhibition |  |  | 
3 | B1 |  | loses its activity | substantially loses its activity | substantially loses its activity

Source: patent US5919694A, “Mutant phosphoenolpyruvate carboxylase, its gene, and production method of amino acid” (Ajinomoto Co., Inc., priority 1993, dated 1999)
